Reference: patent US20250032583A1 (GUANGDONG FAPON BIOPHARMA, published 2025)

Target: T1, mPD1 (on CHO-mPD1 cells) (mouse (printed as mPD1), UniProt Q02242 25-288)
T1 construct: whole, on cells; Target of the antibody terminus in the FACS assay
T1 sequence (looked up): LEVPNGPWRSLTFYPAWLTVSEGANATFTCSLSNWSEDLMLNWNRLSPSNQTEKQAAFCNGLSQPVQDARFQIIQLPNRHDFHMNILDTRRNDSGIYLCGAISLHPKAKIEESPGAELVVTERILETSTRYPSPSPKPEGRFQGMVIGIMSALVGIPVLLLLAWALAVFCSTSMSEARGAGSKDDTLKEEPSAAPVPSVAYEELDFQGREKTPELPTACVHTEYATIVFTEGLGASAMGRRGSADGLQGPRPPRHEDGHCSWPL
Test: flow cytometry (FACS) on CHO-mPD1 cells, PE secondary antibody, 3-fold dilutions from 400 nM
Procedure: CHO-mPD1 or CHO-hIL-10R cells were centrifuged at 250 g for 5 min, a supernatant was discarded, the cell density was adjusted to 2E+06 by a PBS buffer with 3% BSA, and it was evenly divided into a 96-well V-shaped plate according to 100 μl/tube; the fusion protein molecules diluted above were added to cells, and incubated at 100 μL/well and 2-8° C. for 0.5 h; the 96-well plate was taken out, and centrifuged at 250 g for 5 min, and a supernatant was removed carefully; the PBS buffer with 3% BSA was used to prepare a PE fluorescent secondary antibody (1:500 dilution), it was added to the corresponding 96-well plate according to the volume of 100 μL/well, and the cells were resuspended, and incubated at 2-8° C. for 30 min; the 96-well plate was taken out, and centrifuged at 250 g for 5 min, a supernatant was removed carefully, the PBS buffer with 3% BSA was added at 200 μL/well, and it was centrifuged again at 250 g for 5 min, and a supernatant was removed carefully; and it was resuspended with 1×PBS according to the volume of 100 μL/well, and FACS detection was performed after the resuspension.

- binding result: binds
B1: R0989 (other)
heavy: QVQLKESGPGLVQPSQTLSLTCTVSGFSLTSYNVHWVRQPPGKGLEWMGGMRYNEDTSYNSALKSRLSISRDTSKNQVFLKMNSLQTDDTGTYYCTRDAVYGGYGGWFAYWGQGTLVTVSSASTKGPSVFPLAPSSKSTSGGTAALGCLVKDYFPEPVTVSWNSGALTSGVHTFPAVLQSSGLYSLSSVVTVPSSSLGTQTYICNVNHKPSNTKVDKRVEPKSCDKTHTCPPCPAPEAAGGPSVFLFPPKPKDTLMISRTPEVTCVVVDVSHEDPEVKFNWYVDGVEVHNAKTKPREEQYNSTYRVVSVLTVLHQDWLNGKEYKCKVSNKALPAPIEKTISKAKGSGSGSGSGQGTQSENSCTHFPGNLPNMLRDLRDAFSRVKTFFQMKDQLDNLLLKESLLEDFKGYLGCQALSEMIQFYLEEVMPQAENQDPDIKAHVNSLGENLKTLRLRLRRCHRFLPCENGGGSGGKSKAVEQVKNAFNKLQEKGIYKAMSEFDIFINYIEAYMTMKIRNGSGSGSGSGQPREPQVYTLPPSREEMTKNQVSLTCLVKGFYPSDIAVEWESNGQPENNYKTTPPVLDSDGSFFLYSKLTVDKSRWQQGNVFSCSVMHEALHNHYTQKSLSLSPGK
light: DTVLTQSPALAVSLGQRVTISCKASETVSSSMYSYIHWYQQKPGQQPKLLIYRASNLESGVPARFSGSGSGTDFTLTIDPVEADDVATYFCQQSWNPWTFGGGTKLELKRTVAAPSVFIFPPSDEQLKSGTASVVCLLNNFYPREAKVQWKVDNALQSGNSQESVTEQDSKDSTYSLSSTLTLSKADYEKHKVYACEVTHQGLSSPVTKSFNRGEC
notes: Anti-PD-1 antibody with the modified IL-10 monomer inserted between CH2 and CH3 through linker2; also called IL-10 monomer fusion protein, IL-10 monomer between CH2 and CH3 of the heavy chain (Position 3)
